Results on three molecules are retold here after article PMC13356908.

Assay [1] has as its target LD655-labeled p97 D592AzF (human) (UniProt P55072). The assay is described as follows: cryo-EM structure; datasets 1 and 2: 12.5 uM ^LD655p97^D592AzF, 10 uM UN, 10 uM Faf1 FH-UBX, 20 uM Ub-^Cy3Ub-Ubn, GF buffer with 5 mM ATP, 0.06% CHAPS, 0.04% octyl-β-D-glucopyranoside, frozen at once after mixing; PI state, I state, Npl4 local map, IC1 and IC2.
Assay [2] has the same target. The assay is described as follows: FRET or BRET; stopped-flow mixing, 37°C, with ATP; 1 uM ^LD655p97/UN/Faf1 and 0.1 uM Ub-^Cy3Ub-Ubn chains; excitation 480 nm; apparent time constant. In general terms: BRET reads energy transfer from a luciferase to a nearby fluorophore.
For a further assay, the target named is T1, Ufd1 (human) (human).
T1 sequence (Q92890 1-307, looked up): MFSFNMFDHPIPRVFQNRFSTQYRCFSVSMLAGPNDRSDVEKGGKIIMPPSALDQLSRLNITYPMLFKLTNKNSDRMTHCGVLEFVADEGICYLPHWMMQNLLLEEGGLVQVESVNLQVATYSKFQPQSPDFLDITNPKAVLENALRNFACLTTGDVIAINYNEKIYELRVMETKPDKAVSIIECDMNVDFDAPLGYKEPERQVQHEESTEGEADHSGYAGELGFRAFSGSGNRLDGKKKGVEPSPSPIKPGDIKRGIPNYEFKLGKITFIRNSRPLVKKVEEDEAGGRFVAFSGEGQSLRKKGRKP

Molecule “Faf1 FH-UBX fragment (from UniProt Q9UNN5 481-650) (domain or fragment)” returned a stoichiometry N (per p97 hexamer) in assay [1] of 2.
For “unanchored poly-ubiquitin chains with Cy3 on the second ubiquitin (Ub-^Cy3Ub-Ubn) (from UniProt P0CG48 1-76; P0CG48 1-76; P0CG48 1-76)”, the apparent time constant of ubiquitin insertion (τinitiation) in assay [2] is 5.1 s.

B1: Faf2 Δ1-271 (domain or fragment)
chain: YLVSERLEREERNQTQVLRQQQDEAYLASLRADQEKERKKREERERKRRKEEEVQQQKLAEERRRQNLQEEKERKLECLPPEPSPDDPESVKIIFKLPNDSRVERRFHFSQSLTVIHDFLFSLKESPEKFQIEANFPRRVLPCIPSEEWPNPPTLQEAGLSHTEVLFVQDLTDE
Take B1: the Eos-unfolding activity of p97-UN in the assay with Ufd1 (human) (human) is 5 fold.
